± gives the standard error. Fewer inactive variants are shown than the library holds.
B1: glmS ribozyme (parent)
chain: AUAAAAGCGCCAGAACUACAGAAAUGUAGUUGACGAGGAGGAGGUUUAUCGAAUUUUCGGCGGAUGCCUCCAAA

How the values were obtained:
Conditions in all cases: with glucosamine-6-phosphate
[1] = variants of: B1; experiment: kcat; higher = faster cleavage; RNA array
Method in brief: (§1)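 Tracking of barcoded ribozyme variants used a hybridised Cy3 probe at 37 °C, after in situ transcription by E. coli RNA polymerase on sequenced MiSeq chips. The flowed solution held 40 μM to 10 mM glucosamine-6-phosphate in HEPES/KCl/Mg(OAc)2 buffer, and imaging ran over ~14 h. kobs was taken from exponential decay fits of normalised per-tile medians, and kcat and KM from weighted Michaelis–Menten fits.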

[2] = variants of: B1; experiment: self-cleavage kobs at 40 uM GlcN6P; higher = faster cleavage; RNA array
Method in brief: as §1

[3] = variants of: B1; experiment: self-cleavage kobs at 160 uM GlcN6P; higher = faster cleavage; RNA array
Method in brief: as §1

[4] = variants of: B1; experiment: self-cleavage kobs at 2500 uM GlcN6P; higher = faster cleavage; RNA array
Method in brief: as §1

[5] = variants of: B1; experiment: self-cleavage kobs at 10000 uM GlcN6P; higher = faster cleavage; RNA array
Method in brief: as §1

[6] = variants of: B1; experiment: self-cleavage kobs at 640 uM GlcN6P; higher = faster cleavage; RNA array
Method in brief: as §1

| Variant | kcat [1] | self-cleavage kobs at 40 uM GlcN6P [2] | self-cleavage kobs at 160 uM GlcN6P [3] | self-cleavage kobs at 2500 uM GlcN6P [4] | self-cleavage kobs at 10000 uM GlcN6P [5] | self-cleavage kobs at 640 uM GlcN6P [6] |
| --- | --- | --- | --- | --- | --- | --- |
| AUAAAAGCGCCAGAACUACAGAAAUGUAGUUGACGAUGAGGAGGUUUAACGAAUUUUCGGGGGAUGCCUGCAAA [G37U U49A C61G C70G] | 2.13e-05 ± 6.5e-06 s⁻¹ | – | – | – | – | – |
| AUAAAAGCGCCAGAACUACAGAAAUGUAGUUGACGAUCAGGAGGUUUAUCGAAUUUUCGGCGGAUGCCUCCAAA [G37U G38C] | < 1e-05 s⁻¹ | < 1e-05 s⁻¹ | < 1e-05 s⁻¹ | < 1e-05 s⁻¹ | – | – |
| AUAAAAGCGCCAGAACUACAGAAAUGUAGUUGACGAGAAGGAGGUUUAUCGAAUUUUGGGCGGAUGCCUCCAAA [G38A C58G] | 1.16e-05 ± 3.2e-06 s⁻¹ | – | < 1e-05 s⁻¹ | – | < 1e-05 s⁻¹ | – |
| AUAAAAGCGCCAGAACUACAGAAAUGUAGUUGACGAUGAGGAGGUUUAUCGAAGUUUCGGCGGAUGCCUCCAAA [G37U U54G] | < 1e-05 s⁻¹ | < 1e-05 s⁻¹ | < 1e-05 s⁻¹ | – | – | < 1e-05 s⁻¹ |
| AUAAAAGCGCCAGAACUACAGAAAUGUAGUUGACGAUGAGGAGGUUUAUCGAAUUUUCGGCGGAUGCCUCAAAA [G37U C71A] | 1.95e-05 ± 4.6e-06 s⁻¹ | – | – | – | – | – |
| AUAAAAGCGCCAGAACUACAGAAAUGUAGUUGACGAUGAGGAGGUUUAUCGGAUUUUCGGCGGAUGCCUCCAAA [G37U A52G] | < 1e-05 s⁻¹ | < 1e-05 s⁻¹ | – | – | – | < 1e-05 s⁻¹ |
| AUAAAAGCGCCAGAACUACAGAAAUGUAGUUGACGAUGAGGAGGUUUAUCGAAUUUUCGGAGGAUGCCUCCAAA [G37U C61A] | 1.07e-05 ± 1.5e-06 s⁻¹ | – | – | – | < 1e-05 s⁻¹ | – |
| AUAAAAGCGCCAGAACUACAGAAAUGUAGUUGACGACGAGGAGGUUUAUCGAACUUUCGGCGGAUGCCUCCAAA [G37C U54C] | 6.94e-05 ± 3e-05 s⁻¹ | – | – | – | 3.48e-05 ± 7.4e-06 s⁻¹ | – |
| AUAAAAGCGCCAGAACUACAGAAAUGUAGUUGACGAUGAGGAGGUUUAUCCAAUUUUCGGCGGAUGCCUCCAAA [G37U G51C] | < 1e-05 s⁻¹ | – | – | – | < 1e-05 s⁻¹ | – |
| AUAAAAGCGCCAGAACUACAGAAAUGUAGUUGACGAGAAGGAGGUUUAUCUAAUUUUCGGCGGAUGCCUCCAAA [G38A G51U] | < 1e-05 s⁻¹ | < 1e-05 s⁻¹ | – | – | < 1e-05 s⁻¹ | < 1e-05 s⁻¹ |
| AUAAAAGCGCCAGAACUACAGAAAUGUAGUUGACGAGAAGGAGGUUUAUCGAAUUUUCGGCGGAUGCAUCCAAA [G38A C68A] | < 1e-05 s⁻¹ | < 1e-05 s⁻¹ | – | – | < 1e-05 s⁻¹ | – |
| AUAAAAGCGCCAGAACUACAGAAAUGUAGUUGACGAUGAGGAGGAUUAUCGAAUUUUCGGCGGAUGCCUCCAAA [G37U U45A] | < 1e-05 s⁻¹ | – | < 1e-05 s⁻¹ | – | – | – |
| AUAAAAGCGCCAGAACUACAGAAAUGUAGUUGACGAUGAGGAGGUUUAUCGAAUUUCCGGCGGAUGCCUCCAAA [G37U U57C] | < 1e-05 s⁻¹ | – | – | < 1e-05 s⁻¹ | < 1e-05 s⁻¹ | – |
| AUAAAAGCGCCAGAACUACAGAAAUGUAGUUGACGAUGAGGAGGUUUAUCGAAUUUGCGGCGGAUGCCUCCAAA [G37U U57G] | < 1e-05 s⁻¹ | – | – | < 1e-05 s⁻¹ | – | – |
| AUAAAAGCGCCAGAACUACAGAAAUGUAGUUGACGAGAAGGAGGUUUAUCGAAUUUUCGGGGGAUGCCUCCAAA [G38A C61G] | 1.44e-05 ± 3.1e-06 s⁻¹ | – | – | – | – | – |
| AUAAAAGCGCCAGAACUACAGAAAUGUAGUUGACGAGAAGGAGGUUUAUCGAAUUUUCGGAGGAUGCCUCCAAA [G38A C61A] | < 1e-05 s⁻¹ | – | – | – | – | – |

Source: the supplement of paper PMC7125110
